In the supplement of paper PMC10724198:
± gives the standard deviation of the averaged measurements.

test system: Saccharomyces cerevisiae; test: protein stability index of tFT-peptide fusion (C-terminal peptide) (PSI (0-1 scale)); higher = more stable (slower turnover); conditions: genetic background: wild type; temperature: 30 C
Experimental: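 Multiplexed protein stability (MPS) profiling in S. cerevisiae. Random 12-aa peptides (tFT-X12 library) are fused to the C-terminus of a sfGFP-mCherry tandem fluorescent timer, after mCherry and a GGGS linker. Cells are FACS-sorted into 8 mCherry/sfGFP bins and deep-sequenced. The protein stability index (PSI) is the read-weighted bin average, scaled from 0 (unstable) to 1 (stable). Only peptides with >10 reads are reported; cells were grown at 30 °C in SC-His with glucose.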
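Also: PSI is a weighted mean of sequencing reads over stability bins, variants kept only with over 10 reads, mCherry proximal and sfGFP distal, peptide attached via GGGS linker.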

Point of comparison: PRPALRPLPVYP, protein stability index 0.612 ± 0.068. Against it:
- NPPPPAHYSRPP — higher, 0.73 ± 0.031
- GNKAPHTRTIGG — within error, 0.706 ± 0.028
- LPSAPLLPLLRP — within error, 0.68 ± 0.041
- PPRPPPHPAPLS — higher, 0.755 ± 0.019
- LLFFSCGGVSSV — within error, 0.657 ± 0.053
- NGLGKGKTKGEI — within error, 0.625 ± 0.1
- KKKKEEKWSSAR — within error, 0.709 ± 0.061
- SHLPPRSPPVPS — within error, 0.6825 ± 0.0051
- SCFRTLPGRWPF — higher, 0.793 ± 0.022
- PPSLEPFSPSPR — within error, 0.639 ± 0.013
- SPAGGPSGGEGV — within error, 0.674 ± 0.062
- LRSPGSHIVRLT — within error, 0.569 ± 0.035
- FSYPPSLVPFCS — higher, 0.702 ± 0.019
- INIKKKKKIQHI — within error, 0.564 ± 0.016
- GGRGRGARPGGR — within error, 0.647 ± 0.027
- DCREALLAKVYL — within error, 0.627 ± 0.07
- VAWAQPSGSKAC — within error, 0.697 ± 0.046
- RQANQVSTSAEN — within error, 0.726 ± 0.11
- GKGYVFRTLSHL — within error, 0.732 ± 0.082
- PPPLPPRLPHLA — within error, 0.664 ± 0.036
- VGGGRAALRWYG — within error, 0.673 ± 0.018
- KKKKKKLKKKKI — within error, 0.724 ± 0.056
- KKKKGNKKRREK — higher, 0.731 ± 0.0083
- GHVCNSIVPFRV — within error, 0.624 ± 0.022
- LASTMTIMLPGC — within error, 0.703 ± 0.15
- HRCRVGGSRFEK — within error, 0.671 ± 0.036
- KKTDKSNKVKRI — within error, 0.669 ± 0.013
- PTVLCTGKCLRS — within error, 0.635 ± 0.044
- SPLPADSHPLPP — within error, 0.667 ± 0.015
- PPPFSPPAPSPP — within error, 0.669 ± 0.053
- GVPRMLVGAFRG — within error, 0.684 ± 0.022
- GEALSFIFVSPP — higher, 0.722 ± 0.033
- GPRVFKPRTTHG — within error, 0.663 ± 0.025
- DPPDPASIHLSF — higher, 0.752 ± 0.0096
- REMKGKLHEHRK — within error, 0.6792 ± 0.0029
- VKGKKREVTDPR — within error, 0.6376 ± 0.0023
- LYWAYLGASVLL — within error, 0.658 ± 0.013
- IADRLAAIPMRY — within error, 0.669 ± 0.011
- NIRSRKYMLRKS — within error, 0.744 ± 0.085
- VCTPCEFIRTQG — within error, 0.697 ± 0.036
- FATPDGFVSLWF — within error, 0.774 ± 0.14
- PPPPPPARLPSP — higher, 0.711 ± 0.017
- EENLLYLLYVEC — within error, 0.544 ± 0.016
- QVVLCCAIDKNT — within error, 0.708 ± 0.082
- LVFHSLCFFPLS — within error, 0.694 ± 0.014
- VLKVFIRERRVR — within error, 0.703 ± 0.081
- VWGWGSWGGCGG — within error, 0.705 ± 0.066
- PQRRPPASTRSD — within error, 0.682 ± 0.018
- HIPAFLSRFIHG — within error, 0.685 ± 0.038
- SPPPLPHPPAAS — within error, 0.698 ± 0.023
- LVALCGYTLRLR — within error, 0.487 ± 0.076
- PPASPPAPRPPV — higher, 0.759 ± 0.018
- HGERMRKSPREE — within error, 0.672 ± 0.11
- PAPPPSPPPRLA — within error, 0.67 ± 0.075
- SGAADGDADRHP — higher, 0.721 ± 0.029
- PPPDSPPLPAPP — within error, 0.659 ± 0.033
- FLLYSSSAIPEH — higher, 0.759 ± 0.065
- DLVRGGNCVYGV — within error, 0.66 ± 0.032
- NFHVRFVPDGGR — within error, 0.67 ± 0.021
- AFRISLSCPISL — within error, 0.619 ± 0.056
- FPRLPSRPLSSL — higher, 0.6898 ± 0.0033
- PTPPLPLPRPLP — within error, 0.688 ± 0.037
- KNDLHGLFLMSE — within error, 0.648 ± 0.041
- LVGSGLFGWGWN — higher, 0.769 ± 0.073
- RSSPRCPPSPGH — higher, 0.7247 ± 0.0018
- PEHGPWLFKGFF — within error, 0.653 ± 0.025
- LIWGRGGSRTGG — higher, 0.747 ± 0.062
- VVPSLLVLPFFC — lower, 0.51 ± 0.01
- CLVKSNVCVAPG — within error, 0.643 ± 0.12
- PLGCFQQDVYEK — within error, 0.733 ± 0.089
- RREDWQEKRYGL — within error, 0.761 ± 0.083
- LSALQQSSAPSI — within error, 0.691 ± 0.057
